Laboratory results reported in patent publication US20190241662A1 (ADAGENE, published 2019).

T1: full-length human CTLA4 expressed on cells (human, UniProt P16410 36-223)
T1 construct: whole, on cells; also called HEK293F/hCTLA-4 cells; HEK293F/hCTLA4 cells
T1 sequence (looked up): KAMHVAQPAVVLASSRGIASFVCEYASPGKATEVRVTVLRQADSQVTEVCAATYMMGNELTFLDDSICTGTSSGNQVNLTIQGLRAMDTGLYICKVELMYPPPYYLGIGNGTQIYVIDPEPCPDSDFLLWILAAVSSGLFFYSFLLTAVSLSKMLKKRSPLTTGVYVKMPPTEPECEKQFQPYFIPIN

T2: biotinylated rat CTLA4 protein fused with human FC (rat, UniProt Q62859 36-161, Biotinylated; sites not stated)
T2 sequence: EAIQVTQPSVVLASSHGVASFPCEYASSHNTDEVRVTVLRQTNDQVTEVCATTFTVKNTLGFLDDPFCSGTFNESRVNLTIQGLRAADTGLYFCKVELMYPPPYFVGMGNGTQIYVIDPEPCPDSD

T3: human TNFR1 on HEK293F cells (human, UniProt P19438 30-455)
T3 construct: whole, on cells; also called CD120a
T3 sequence (looked up): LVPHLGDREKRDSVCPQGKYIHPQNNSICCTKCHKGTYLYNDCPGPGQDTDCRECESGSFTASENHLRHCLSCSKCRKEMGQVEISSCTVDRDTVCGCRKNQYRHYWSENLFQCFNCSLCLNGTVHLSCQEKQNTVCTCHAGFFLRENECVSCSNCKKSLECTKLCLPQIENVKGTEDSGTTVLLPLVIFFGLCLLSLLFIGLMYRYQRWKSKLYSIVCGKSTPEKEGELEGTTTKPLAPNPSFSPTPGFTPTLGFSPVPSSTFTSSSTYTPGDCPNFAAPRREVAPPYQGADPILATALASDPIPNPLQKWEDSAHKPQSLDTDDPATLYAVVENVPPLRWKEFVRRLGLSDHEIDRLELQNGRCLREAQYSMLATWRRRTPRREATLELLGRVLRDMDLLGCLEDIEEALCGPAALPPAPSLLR

T4: human CD95 on HEK293F cells (human, UniProt P25445 26-335)
T4 construct: whole, on cells
T4 sequence (looked up): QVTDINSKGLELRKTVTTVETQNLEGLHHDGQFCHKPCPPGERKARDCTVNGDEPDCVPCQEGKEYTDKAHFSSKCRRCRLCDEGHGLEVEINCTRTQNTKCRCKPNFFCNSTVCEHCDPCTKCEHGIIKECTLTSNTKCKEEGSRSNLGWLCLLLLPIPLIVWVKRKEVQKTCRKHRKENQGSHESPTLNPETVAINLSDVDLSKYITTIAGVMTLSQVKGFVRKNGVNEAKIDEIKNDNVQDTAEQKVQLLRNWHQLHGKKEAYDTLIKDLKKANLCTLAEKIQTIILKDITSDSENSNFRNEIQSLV

T5: human B7H3 on HEK293F cells (human, UniProt Q5ZPR3 29-534)
T5 construct: whole, on cells
T5 sequence (looked up): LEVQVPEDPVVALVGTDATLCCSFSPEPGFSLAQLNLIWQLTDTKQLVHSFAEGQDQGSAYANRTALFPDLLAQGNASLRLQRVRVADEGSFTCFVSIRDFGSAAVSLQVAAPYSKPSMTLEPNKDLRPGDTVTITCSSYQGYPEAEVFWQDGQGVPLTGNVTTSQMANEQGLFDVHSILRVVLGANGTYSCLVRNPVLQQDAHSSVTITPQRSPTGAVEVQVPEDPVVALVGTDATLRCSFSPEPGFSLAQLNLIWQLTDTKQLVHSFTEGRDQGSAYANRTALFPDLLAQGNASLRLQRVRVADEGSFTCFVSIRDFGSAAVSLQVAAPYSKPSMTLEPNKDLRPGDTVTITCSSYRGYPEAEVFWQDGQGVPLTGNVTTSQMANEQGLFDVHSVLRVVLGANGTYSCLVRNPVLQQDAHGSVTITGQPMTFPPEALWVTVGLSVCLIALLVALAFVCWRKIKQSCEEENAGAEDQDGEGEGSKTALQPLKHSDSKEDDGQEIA


Legend:
[1] = biological target: T1, full-length human CTLA4 expressed on …; test: flow cytometry, transfected HEK293F cells, antibody concentration not printed [Cont.]
Description: (§1) The affinities of the antibodies were also assessed against human and mouse CTLA4 transiently expressed on the surface of HEK293F cells (FIG. 2). Briefly, HEK293F cells were transfected with a plasmid expressing full-length human, monkey or mouse CTLA4 from a bicistronic IRES vector also encoding EGFP, and EGFP expression was used to identify the transfected cells. After 48 hours, the mammalian cell suspension (2×10⁵/well) was transferred to an Eppendorf tube, centrifuged, the supernatant was discarded, the cells were resuspended with 1 mL PBSA (to a density is 4×10⁶ cells/mL), and added to a 96 well plate. […] The cells were then washed once prior to analysis by flow cytometry (Beckman® CytoFlex).

[2] = biological target: T6, full-length mouse CTLA4 expressed on HEK293F cells (mouse, UniProt P09793 36-223); test: as above
T6 construct: whole, on cells
Description: as §1

[3] = biological target: T2, biotinylated rat CTLA4 protein fused …; test: BLI (ForteBio), biotinylated rat CTLA4-Fc on SA sensor, IgG 15 ug/mL
Excerpt: The association and dissociation curves were fitted to a 1:1 Langmuir binding model using ForteBio Data Analysis 7.1 (Pall, USA) according to the manufacturer's guidelines.

[4] = biological target: T1, full-length human CTLA4 expressed on …; test: flow cytometry, transfected HEK293F cells, antibody concentration not given
Description: as §1

[5] = biological target: T6, full-length mouse CTLA4 expressed on …; test: as above
Description: as §1

[6] = biological target: T3, human TNFR1 on HEK293F cells; test: flow cytometry, transfected HEK293F cells
Description: (§2) Antibody selectivity was next examined. Human CTLA4, PD1, LAG3, Tim3, B7H3, CD95, TNFR1, OX40, CD40, PD-L1, BLTA, VISTA, PDL2, ICOS and B7H4 were transiently overexpressed on the surface of HEK293F cells. Transfected cells were washed in pre-chilled 1×PBSA buffer (1.76 mM KH2PO4, 10.14 mM Na2HPO4.12H2O, 2.68 mM KCl, 136.89 mM NaCl and 1% BSA), then incubated with 100 nM test antibodies for 1 hour on ice. Cells were washed once with staining buffer, and Alexa Fluor® 647 conjugated mouse anti-human FC antibodies were added and incubated for 30 minutes on ice, protected from light. Samples were washed once with staining buffer prior to analysis by flow cytometry.

[7] = biological target: T4, human CD95 on HEK293F cells; test: flow cytometry, transfected HEK293F cells
Description: as §2

[8] = biological target: T5, human B7H3 on HEK293F cells; test: flow cytometry, transfected HEK293F cells
Description: as §2

Binder | % of cells in upper right quadrant (Q2) [1] | Mean [1] | % of cells in upper right quadrant (Q2) [2] | Mean [2] | Kd [3] | % of cells in upper right quadrant (Q2) [4] | % of cells in upper right quadrant (Q2) [5] | binding result [6] | binding result [7] | binding result [8]
TY21687 (antibody, V domains shown, human IgG1 (hIgG1) from Fab hit B15700) VH: EVQLVESGGGLVQPGGSLRLSCAASGFTFSGYAIHWVRQAPGKGLEWIGIISPSGGGTKYAQKFQGRVTISRDNSKNTLYLQLNSLRAEDTAVYYCARHPFAYWGQGTLVTVSS VL: DIQLTQSPSSLSASVGDRVTITCRASQSVDFYGISFLDWYQQKPGKAPKLLIYDASNRATGIPSRFSGSGSGTDFTLTISSLQPEDFATYYCQQYVSSPPEYTFGQGTKVEIK | 50.4 | 433000 | 33.4 | 633000 | 0.78 nM | – | – | – | – | –
TY21585 (antibody, V domains shown, human IgG1 (hIgG1) from Fab hit B15709) VH: EVQLVESGGGLVQPGGSLRLSCAASGFTFSDYAIHWVRQAPGKGLEWIGIISPSSGSTNYAQKFQGRVTISRDNSKNTLYLQLNSLRAEDTAVYYCARDIHSGSSGYYYGFDVWGQGTLVTVSS VL: DIQLTQSPSSLSASVGDRVTITCRASESVDFFGISFLAWYQQKPGKAPKLLIYDASNRATGIPSRFSGSGSGTDFTLTISSLQPEDFATYYCQHYTSSPPVYTFGQGTKVEIK | – | – | – | – | – | 25.7% | 30.8% | no binding (tested: 100 nM) | no binding (tested: 100 nM) | –
TY21691 (antibody, V domains shown, human IgG1 (hIgG1) from Fab hit B15736) VH: EVQLVESGGGLVQPGGSLRLSCAASGFTFSDYAIHWVRQAPGKGLEWIGIISPSGGSTKYAQKFQGRVTISRDNSKNTLYLQLNSLRAEDTAVYYCARLGYGYFDVWGQGTLVTVSS VL: DIQLTQSPSSLSASVGDRVTITCRASQSVDFYGISFLHWYQQKPGKAPKLLIYDASSLESGVPSRFSGSGSGTDFTLTISSLQPEDFATYYCVQALQLPLTFGQGTKVEIK | – | – | – | – | 0.58 nM | – | – | – | – | no binding (tested: 100 nM)
